Substitutions are numbered along the chain they refer to. In names and notes the source's numbering stands.

Substrate in this data set: C[C@H](N)C(=O)O
Kind of data set: purified protein. The settings on record: 2 mM ATP, 2 mM PPi, 10 mM MgCl2, 30 mM KCl, 2 mM NaF, pH 7.2, 37 °C, amino acid activation.

B1: E. coli AlaRS (Escherichia coli K-12; C666A/D551Y) (protein)
chain: SKSTAEIRQAFLDFFHSKGHQVVASSSLVPHNDPTLLFTNAGMNQFKDVFLGLDKRNYSRATTSQRCVRAGGKHNDLENVGYTARHHTFFEMLGNFSFGDYFKHDAIQFAWELLTSEKWFALPKERLWVTVYESDDEAYEIWEKEVGIPRERIIRIGDNKGAPYASDNFWQMGDTGPCGPCTEIFYDHGDHIWGGPPGSPEEDGDRYIEIWNIVFMQFNRQADGTMEPLPKPSVDTGMGLERIAAVLQHVNSNYDIDLFRTLIQAVAKVTGATDLSNKSLRVIADHIRSCAFLIADGVMPSNENRGYVLRRIIRRAVRHGNMLGAKETFFYKLVGPLIDVMGSAGEDLKRQQAQVEQVLKTEEEQFARTLERGLALLDEELAKLSGDTLDGETAFRLYDTYGFPVDLTADVCRERNIKVDEAGFEAAMEEQRRRAREASGFGADYNAMIRVDSASEFKGYDHLELNGKVTALFVDGKAVDAINAGQEAVVVLDQTPFYAESGGQVGDKGELKGANFSFAVEDTQKYGQAIGHIGKLAAGSLKVGDAVQAYVDEARRARIRLNHSATHLMHAALRQVLGTHVSQKGSLVNDKVLRFDFSHNEAMKPEEIRAVEDLVNTQIRRNLPIETNIMDLEAAKAKGAMALFGEKYDERVRVLSMGDFSTELAGGTHASRTGDIGLFRIISESGTAAGVRRIEAVTGEGAIATVHADSDRLSEVAHLLKGDSNNLADKVRSVLERTRQLEKELQQLKEQAAAQESANLSSKAIDVNGVKLLVSELSGVEPKMLRTMVDDLKNQLGSTIIVLATVVEGKVSLIAGVSKDVTDRVKAGELIGMVAQQVGGKGGGRPDMAQAGGTDAAALPAALASVKGWVSAKLQ
In the case of B1, the Km worked out at 217 ± 100 µM, the kcat is 18.3 s⁻¹ and the kcat/Km was found to be 84300 M⁻¹ s⁻¹.

B2: E. coli AlaRS (Escherichia coli K-12; R561C) (protein)
chain: B1 chain with Y550D, R560C, A665C
For B2, the Km amounted to 203 ± 68 µM, the kcat was determined as 21.8 s⁻¹ and the kcat/Km stood at 107000 M⁻¹ s⁻¹.

Values taken from PMC7603204.
